Reference: article PMC6879612 (Nature Communications, 2019)

Target: T1, p53_(125–134)/HLA-A24 pMHC, soluble recombinant (Homo sapiens, HLA-A*24:02, biotin where the biotinylated pMHC was used (site not stated))
T1 construct: HLA-A24 heavy chain (α-chain), recombinant; β2-microglobulin, recombinant; source: biotinylated or non-biotinylated; copies: + +
Experiment: ELISA; biotinylated pMHC captured on NeutrAvidin-coated wells; IgG1 in solution, detected with HRP anti-human IgG Fcγ
Conditions: both partners purified

B1: P1C1 (parental clone), human IgG1 (antibody, V domains shown)
VH: QLQLQESGPGLVKPSQTLSLTCAVSGGSISSGGYYWSWIRQRPGKGLEWIGYIYYSGSTYYNPSLKSRLTISVDTSKNQFSLKLSSVTAADTAVYYCARENFGAFDHWGQGTLVTVSS
VL: QAVLTQPSSVSGAPGQRVTISCTGSSSNIGADYETHWYQHLPGTAPKLLIYGNTNRPSGVPHRFSGSKSGTSASLAITGLQAEDEADYYCQSYDSNLSAWVFGGGTKLTIL
notes: heavy framework 1 of the parental clone; heavy CDR1 (Kabat); heavy framework 2, CDR2, framework 3; heavy CDR3 (Kabat); heavy framework 4; light framework 1 of the parental clone; light CDR1 (Kabat); light framework 2, CDR2, framework 3; light CDR3 (Kabat); light framework 4; Human IgG1; From a naive human Fab phage library (Humanyx); also called parental P1C1 antibody; source: HEK293-6E, pTT5 …
binding result: binds
